This is an account of results in publication doi:10.1101/2023.05.01.538930 (bioRxiv, 2023).

The series “crystal structure” deals with the molecule itself. As to the kind of experiment: crystal structure.
Series [1] concerns the target T1, GajA of the Gabija system from Bacillus cereus VD045 (Bacillus cereus VD045, UniProt J8H9C1 1-578).
T1 sequence (looked up): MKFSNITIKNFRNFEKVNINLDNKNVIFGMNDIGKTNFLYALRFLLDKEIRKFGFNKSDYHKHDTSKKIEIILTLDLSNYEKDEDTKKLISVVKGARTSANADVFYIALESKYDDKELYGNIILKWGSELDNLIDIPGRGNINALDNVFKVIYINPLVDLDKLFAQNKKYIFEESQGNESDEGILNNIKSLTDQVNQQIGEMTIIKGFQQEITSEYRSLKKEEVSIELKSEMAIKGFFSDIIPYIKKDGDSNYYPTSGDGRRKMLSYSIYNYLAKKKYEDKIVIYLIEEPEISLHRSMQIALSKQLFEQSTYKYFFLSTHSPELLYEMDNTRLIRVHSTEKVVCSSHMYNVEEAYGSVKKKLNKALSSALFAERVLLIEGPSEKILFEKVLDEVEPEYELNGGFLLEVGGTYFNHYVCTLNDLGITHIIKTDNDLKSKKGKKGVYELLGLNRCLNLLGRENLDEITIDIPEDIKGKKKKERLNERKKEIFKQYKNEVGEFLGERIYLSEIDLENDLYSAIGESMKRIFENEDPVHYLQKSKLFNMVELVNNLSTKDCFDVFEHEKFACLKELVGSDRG
Kind of series: reconstitution of the complex from purified proteins.

B1: Tad2 from phage SPO1 (construct for crystallization) (natural protein, Bacillus phage SPO1)
chain: MKTKMSFGEALEVLKQGMQVYRSGWNGKNMFLFLKSSDALASDFGFGFGEYINEPVFGNIIFIKTADNKIHAWVPSQTDVLAEDWDIVS
One may read the stoichiometry N as a count of units in the complex or per binding partner. Take B1: the “stoichiometry N” value in “crystal structure” turned out to be 4.

B2: GajB of the Gabija system from Bacillus cereus VD045 (natural protein, UniProt J8HQ06 1-494, looked up)
chain: MSREQIIKDGGNILVTAGAGSGKTTILVSKIEADLKENKTHYSIAAVTFTNKAAKEIEGRLGYSSRGNFIGTNDGFVESEIIRPFIKDAFGNDYPDNFTAEYFDNQFASYDKGLQVLKYQNILGTYSNPKKNFKFQLALDILKKSLVARQYIFSKYFKIFIDEYQDSDKDMHNLFMYLKDQLKIKLFIVGDPKQSIYIWRGAEPENFNGLIENSTDFNKYHLTSNFRCCQDIQNYSNLFNEETRSLIKEKNEVQNVISIADDMPISDILLKLTEEKQVLNIEAELVILVRRRNQAIEIMKELNEEGFNFIFIPQTPLDRATPNATLLKEVIKYVKNDRYSIYDLAAEIVGNLSSREIKEIQKIINELLVPNINQVLINQVLINLFAKLEITLDTREITAFTEVMMTNEFDIAFDTNEYLHKIFTVHSAKGLEFNQVIITASDYNVHYNRDTNEHYVATTRAKDKLIVIMDNKKYSDYIETLMKELKIKNIIKSI
On to B2, for which, in series [1], the binding result is given as “binds”.
